Measured values published in PMC5905600, “Structural and Immunodiagnostic Characterization of Synthetic Antigen B Subunits From Echinococcus granulosus and Their Evaluation as Target Antigens for Cyst Viability Assessment” (Clinical Infectious Diseases: An Official Publication of …, 2017).
Where “and” joins values, the source holds several entries; their conditions need not be identical. Equal entries are not always repeated.

How the values were obtained:
[1] = target: Antigen B subunit 1 (AgB1), synthetic (Echinococcus granulosus); experiment: cross-linking; subunits with a 10-fold or a 100-fold excess of EDC; SDS-PAGE under reducing conditions; western immunoblotting with WSH serum
[2] = target: Antigen B subunit 1 (AgB1), synthetic (Echinococcus granulosus); experiment: cross-linking; each single subunit with a 100-fold molar excess of EDC; SDS-PAGE in reducing and nonreducing conditions; bands digested in situ, LC-MS/MS, cross-linked peptides identified with StavroX
[3] = target: Antigen B subunit 2 (AgB2), synthetic (Echinococcus granulosus); experiment: SEC; single synthetic subunits; 50 mM sodium phosphate, 150 mM NaCl, pH 7.4; AKTA Explorer 10; size by calibration with standard proteins (apparent molecular weight)
[4] = target: the molecule itself; experiment: as above

Molecule: Antigen B subunit 1 (AgB1), synthetic (natural protein)
- stoichiometry N [1]: 3 and 4 and 5
- stoichiometry N [2]: 2 and 3 and 4

Molecule: Antigen B subunit 2 (AgB2), synthetic (natural protein)
- stoichiometry N [3]: 6.8 units

B1: Antigen B subunit 4 (AgB4), synthetic (natural protein)
chain: KAEPERCKCLIMRKLGEIRDFFRSDPLGQKLAALGRDLTAICQKLQLKVHEVLKKYVKDLLEEEDEDDLK
- stoichiometry N [4]: 6

B2: Antigen B subunit 3 (AgB3), synthetic (natural protein)
chain: DDDDEVTKTKKGVMKAISEIKHFFQSDPLGKKLVEVMKDVASVCEMVRKKARMALKEYVRKLVKEDE
- stoichiometry N [4]: 6.6 units
